Key:
[1] = biological target: laminin β1 LN-LEa1–4 fragment (mouse); test: SPR
[2] = biological target: laminin β1 LN-LEa1–4 fragment (mouse); test: SEC-MALS

Kd [1]: 22.3 ± 1.7 µM | stoichiometry N [2]: 1
B1: laminin γ1 LN-LEa1–4 fragment (domain or fragment)
chain: APLAAMDECADEGGRPQRCMPEFVNAAFNVTVVATNTCGTPPEEYCVQTGVTGVTKSCHLCDAGQQHLQHGAAFLTDYNNQADTTWWQSQTMLAGVQYPNSINLTLHLGKAFDITYVRLKFHTSRPESFAIYKRTREDGPWIPYQYYSGSCENTYSKANRGFIRTGGDEQQALCTDEFSDISPLTGGNVAFSTLEGRPSAYNFDNSPVLQEWVTATDIRVTLNRLNTFGDEVFNEPKVLKSYYYAISDFAVGGRCKCNGHASECVKNEFDKLMCNCKHNTYGVDCEKCLPFFNDRPWRRATAESASECLPCDCNGRSQECYFDPELYRSTGHGGHCTNCRDNTDGAKCERCRENFFRLGNTEACSPCHCSPVGSLSTQCDSYGRCSCKPGVMGDKCDRCQPGFHSLTEAGCRPCSCDPSGSTDECNVETGRCVCKDNVEGFNCERCKPGFFNLESSNPKGCTPAAAHHHHHH
